From publication PMC10097602, “Ubiquitin-like conjugation by bacterial cGAS enhances anti-phage defence” (Nature, 2023) come the findings set out here.

The target of one series is T1, Vs.4 (Tequatrovirus T4, UniProt P13314).
T1 construct: gene acb2; residues 1-88, full length; SUMO fusion with His6, tag cleaved by ULP1; E. coli BL21(DE3)pLysS
T1 sequence (P13314 1-88): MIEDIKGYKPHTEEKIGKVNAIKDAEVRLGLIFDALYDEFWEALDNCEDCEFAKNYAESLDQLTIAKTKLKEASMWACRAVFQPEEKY
Put plainly: isothermal titration calorimetry (VP-ITC), global fit of three titrations. The format is binding.

A further series concerns the target cGAMP. In words: ITC. To be noted: for Kd: parent: 31.4 nM; for other: ΔH: parent: -24.9 kcal/mol; for other: ΔS: parent: -50.6.
Series [1] deals with the molecule itself. In words: crystal structure; Vs.4 with 3'3'-cGAMP (1.2:1 molar ratio), hanging drops, 7% PEG8000, 0.1 M imidazole pH 6.3, 0.2 mM calcium acetate, room temperature; quaternary structure confirmed with PISA.
Series [2] concerns the molecule itself. Put plainly: AUC; sedimentation velocity, 15 µM of each protein in 20 mM Tris and 150 mM NaCl; hexamer.
Setting [3] is: high incompetent fraction (0.496).

Positions count from the first letter of the chain named. Numbers in names are those of the source.

In the case of `Nc1nc2c(ncn2[C@@H]2O[C@@H]3COP(=O)(O)O[C@H]4[C@@H](O)[C@H](n5cnc6c(N)ncnc65)O[C@@H]4COP(=O)(O)O[C@H]3[C@H]2O)c(=O)[nH]1` [3′3′-cGAMP], on Vs.4, the dissociation constant (Kd) stood at 31.4 nM.

Take “Vs.4 from phage T4 (residues 1-88) (from UniProt P13314) F82A”: in the series with cGAMP, the Kd came to 859 nM, the other: ΔH was -23.3 kcal/mol and the other: ΔS is -51.6 cal/mol·K.

As to “Vs.4 from phage T4 (residues 1-88) (from UniProt P13314) F33A”, in the series with cGAMP (setting [3]), the Kd amounted to 25.3 nM, the other: ΔH is -24.3 kcal/mol and the other: ΔS was -48.8 cal/mol·K.

Take “Vs.4 from phage T4 (residues 1-88) (from UniProt P13314) Y8A”: in the series with cGAMP, the Kd was found to be 158 nM, the other: ΔH is -10.6 kcal/mol and the other: ΔS was -5 cal/mol·K.

As for “Vs.4 from phage T4 (residues 1-88) (from UniProt P13314) A77Y”, in the series with cGAMP, the Kd worked out at 1100 nM, the other: ΔH was -5 kcal/mol and the other: ΔS was 10.3 cal/mol·K.

B1: Vs.4 from phage T4 (residues 1-88) (natural protein, UniProt P13314 1-88, looked up)
chain: T1 sequence (P13314 1-88)
notes: Vs.4, protein of unknown function of bacteriophage T4, residues 1-88; T4 proteome UniProt UP000009087; Hexamer by crystal structure and analytical ultracentrifugation; also called Vs.4 (WT); wild-type Vs.4; source: E. coli BL21(DE3)pLysS, purified (Ni-NTA, SUMO tag cleaved with ULP1, size-exclusion chromatography)
Take B1: the “stoichiometry N” value in series [1] is 6.

B2: Vs.4 F33A (natural protein, phage T4, UniProt P13314 1-88, looked up)
chain: T1 sequence (P13314 1-88) with F33A
notes: Vs.4 of bacteriophage T4, residues 1-88, with F33A; source: E. coli BL21(DE3)pLysS, purified (Ni-NTA, SUMO tag cleaved with ULP1, size-exclusion chromatography)
For the molecule B2, the binding result in series [2] is recorded as “binds”.
